This is an account of results in patent publication US20240124607A1 (Merck Sharp & Dohme, published 2024).

In general, Kd refers to the concentration at which binding is half-saturated. Read a high Kd as weaker binding. Usually koff stands for a measure of how fast the partners let go of each other. A lower koff goes with a long-lived complex. A word on the kon: it is a measure of how fast the partners come together. A low value points to slow association.

Substitutions are numbered along the chain they refer to.

B1: AB0466 F3' CEACAM5 TriNKET (bispecific antibody, human IgG1, kappa)
chain: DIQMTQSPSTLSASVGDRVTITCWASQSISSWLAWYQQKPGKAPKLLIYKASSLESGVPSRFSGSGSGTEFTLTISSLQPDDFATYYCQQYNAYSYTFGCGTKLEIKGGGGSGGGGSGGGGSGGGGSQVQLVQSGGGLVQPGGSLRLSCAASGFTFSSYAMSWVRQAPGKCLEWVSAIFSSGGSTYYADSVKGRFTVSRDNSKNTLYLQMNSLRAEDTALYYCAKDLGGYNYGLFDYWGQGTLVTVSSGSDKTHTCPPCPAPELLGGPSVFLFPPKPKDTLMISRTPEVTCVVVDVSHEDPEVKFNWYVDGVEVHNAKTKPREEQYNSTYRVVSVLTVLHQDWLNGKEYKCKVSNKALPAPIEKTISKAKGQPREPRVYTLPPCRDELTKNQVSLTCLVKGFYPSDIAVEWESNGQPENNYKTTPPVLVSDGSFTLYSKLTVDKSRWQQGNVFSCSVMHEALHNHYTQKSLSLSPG
heavy: EVQLVESGGGLVKPGGSLRLSCAASGFTFSSYSMNWVRQAPGKGLEWVSSISSSSSYIYYADSVKGRFTISRDNAKNSLYLQMNSLRAEDTAVYYCARGAPIGAAAGWFDPWGQGTLVTVSSASTKGPSVFPLAPSSKSTSGGTAALGCLVKDYFPEPVTVSWNSGALTSGVHTFPAVLQSSGLYSLSSVVTVPSSSLGTQTYICNVNHKPSNTKVDKKVEPKSCDKTHTCPPCPAPELLGGPSVFLFPPKPKDTLMISRTPEVTCVVVDVSHEDPEVKFNWYVDGVEVHNAKTKPREEQYNSTYRVVSVLTVLHQDWLNGKEYKCKVSNKALPAPIEKTISKAKGQPREPQVCTLPPSRDELTENQVSLTCLVKGFYPSDIAVEWESNGQPENNYKTTPPVLDSDGSFFLYSWLTVDKSRWQQGNVFSCSVMHEALHNHYTQKSLSLSPG
light: DIQMTQSPSSVSASVGDRVTITCRASQGISSWLAWYQQKPGKAPKLLIYAASSLQSGVPSRFSGSGSGTDFTLTISSLQPEDFATYYCQQGVSFPRTFGGGTKVEIKRTVAAPSVFIFPPSDEQLKSGTASVVCLLNNFYPREAKVQWKVDNALQSGNSQESVTEQDSKDSTYSLSSTLTLSKADYEKHKVYACEVTHQGLSSPVTKSFNRGEC
B2: AB0411 F3' CEACAM5 TriNKET (bispecific antibody, human IgG1, kappa)
chain: DIQLTQSPATLSVSPGERATLSCRASQSVSSSYLAWYQQKPGQAPRLLIYGASSRATGIPDRFSGSGSGTDFTLTISRLEPEDFAVYYCQQYNNWPLTFGCGTKVEIKGGGGSGGGGSGGGGSGGGGSQVQLVQSGGGLVQPGGSLRLSCAASGFTFTSYAMSWVRQAPGKCLEWVSAISGTGDSTFYADSVKGRFTFSRDNSKNTLYLQMNSLRAEDTAVYYCAKDLGWLQYGLFDYWGQGTLVTVSSGSDKTHTCPPCPAPELLGGPSVFLFPPKPKDTLMISRTPEVTCVVVDVSHEDPEVKFNWYVDGVEVHNAKTKPREEQYNSTYRVVSVLTVLHQDWLNGKEYKCKVSNKALPAPIEKTISKAKGQPREPRVYTLPPCRDELTKNQVSLTCLVKGFYPSDIAVEWESNGQPENNYKTTPPVLVSDGSFTLYSKLTVDKSRWQQGNVFSCSVMHEALHNHYTQKSLSLSPG
heavy: B1 heavy
light: B1 light
B3: AB0621 F3' CEACAM5 TriNKET (bispecific antibody, human IgG1, kappa)
chain: DIVMTQSPDSLAVSLGERATINCKSSHSLLYGNFQNNYLAWYQQKPGQPPKLLIYWASTRESGVPDRFSGSGSGTDFTLTISSLQAEDVAVYYCQQYYSYPYTFGCGTKLEIKGGGGSGGGGSGGGGSGGGGSQVQLVQSGAEVKKPGASVKVSCKASGYTFTAYTIHWVRQAPGQCLEWMGYINPSSGYTEYNQKFKDRTTLTADTSISTAYMELSRLRSDDTAVYYCTREGGLLWFDYWGQGTLVTVSSGSDKTHTCPPCPAPELLGGPSVFLFPPKPKDTLMISRTPEVTCVVVDVSHEDPEVKFNWYVDGVEVHNAKTKPREEQYNSTYRVVSVLTVLHQDWLNGKEYKCKVSNKALPAPIEKTISKAKGQPREPRVYTLPPCRDELTKNQVSLTCLVKGFYPSDIAVEWESNGQPENNYKTTPPVLVSDGSFTLYSKLTVDKSRWQQGNVFSCSVMHEALHNHYTQKSLSLSPG
heavy: B1 heavy
light: B1 light

The target in one experiment is T1, Cyno NKG2D-mFc (cynomolgus monkey, UniProt P61252 78-216, limits assumed).
T1 construct: also called cynomolgus NKG2D fused to a mouse Fc
T1 sequence (looked up): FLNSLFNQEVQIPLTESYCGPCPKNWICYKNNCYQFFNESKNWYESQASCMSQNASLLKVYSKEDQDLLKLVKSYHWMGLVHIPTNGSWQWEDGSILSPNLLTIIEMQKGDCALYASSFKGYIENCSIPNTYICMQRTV
In words: SPR, NKG2D-mFc captured, 37C, pH 6.0. How it is done: (§1) Binding to NKG2D was assessed by SPR using a mouse Fc capture kit (Cytiva, #BR100838) immobilized onto a CM5 chip. Human and cynomolgus NKG2D fused to a mouse Fc were captured and AB0411, AB0466, or AB0621 was titrated from 600 nM.
B1 had an equilibrium dissociation constant (Kd) of 420 nM, a dissociation rate constant (koff) of 0.11 s⁻¹ and a kon of 310000 M⁻¹ s⁻¹.
For B2 the same measures were 500 nM, 0.14 s⁻¹ and 270000 M⁻¹ s⁻¹.
As to B3, binding was put at a Kd of 300 nM, the koff was 0.045 s⁻¹ and the on-rate (kon) amounted to 150000 M⁻¹ s⁻¹.

The next experiment deals with T2, soluble mouse Fc-human NKG2D dimer (human, UniProt P26718 78-216, limits assumed).
T2 construct: also called NKG2D-mFc; human NKG2D fused to a mouse Fc
T2 sequence (looked up): T1 sequence (looked up) with N38D, I128T
In words: SPR, NKG2D-mFc captured, 37C, pH 6.0. How it is done:
as §1
(In general: In SPR one partner is held on a chip, and binding of the other changes the refractive index at the surface.)
In turn, B1 registered a Kd of 480 nM, a koff of 0.12 s⁻¹ and a kon of 240000 M⁻¹ s⁻¹.
The molecule B2 displayed a Kd of 490 nM, a koff of 0.13 s⁻¹ and a kon of 280000 M⁻¹ s⁻¹.
B3 gave a dissociation constant (Kd) of 240 nM, a koff of 0.056 s⁻¹ and an on-rate (kon) of 240000 M⁻¹ s⁻¹.

The target in the next experiment is T3, Human CEACAM5 I113T (human, UniProt P06731 35-685, limits assumed).
T3 sequence: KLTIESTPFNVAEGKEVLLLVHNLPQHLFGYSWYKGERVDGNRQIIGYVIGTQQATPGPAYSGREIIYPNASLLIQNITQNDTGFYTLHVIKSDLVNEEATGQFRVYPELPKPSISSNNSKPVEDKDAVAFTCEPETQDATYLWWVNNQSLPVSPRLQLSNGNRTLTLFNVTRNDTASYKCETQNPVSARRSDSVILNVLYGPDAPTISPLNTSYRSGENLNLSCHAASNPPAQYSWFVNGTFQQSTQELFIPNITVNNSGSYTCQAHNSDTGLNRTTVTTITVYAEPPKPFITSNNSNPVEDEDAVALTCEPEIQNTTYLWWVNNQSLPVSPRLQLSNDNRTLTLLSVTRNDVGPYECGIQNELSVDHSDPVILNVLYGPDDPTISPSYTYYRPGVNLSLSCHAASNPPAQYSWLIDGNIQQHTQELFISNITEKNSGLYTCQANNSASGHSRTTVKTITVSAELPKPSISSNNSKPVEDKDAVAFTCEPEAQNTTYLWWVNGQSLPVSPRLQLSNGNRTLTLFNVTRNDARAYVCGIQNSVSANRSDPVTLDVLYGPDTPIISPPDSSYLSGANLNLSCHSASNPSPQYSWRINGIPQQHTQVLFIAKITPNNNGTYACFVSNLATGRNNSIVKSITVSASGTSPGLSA
In words: SPR, 37C, pH 7.4.
In the case of B1, the Kd was 8.4 nM and the kon amounted to 160000 M⁻¹ s⁻¹.
As for B2, binding was put at a Kd of 1.9 nM and the kon was 210000 M⁻¹ s⁻¹.
On the same counts, the results for B3 are 29 nM and 47000 M⁻¹ s⁻¹.

The target in a further experiment is T4, Human CEACAM5 (K398) (human, UniProt P06731 35-685, limits assumed).
T4 construct: also called K398 allele
T4 sequence: T3 sequence with T79I, E364K
As to the kind of experiment: SPR, 37C, pH 7.4.
Consider B1, for which the equilibrium dissociation constant (Kd) is 6.3 nM and the association rate constant (kon) is 220000 M⁻¹ s⁻¹.
With B2, the Kd came out at 1.4 nM and the on-rate (kon) is 270000 M⁻¹ s⁻¹.
For B3, the dissociation constant Kd amounted to 19 nM and the kon was 86000 M⁻¹ s⁻¹.

The target in a further experiment is T5, Human CEACAM5 I112V (human, UniProt P06731 35-685, limits assumed).
T5 sequence: T3 sequence with I78V, T79I
In words: SPR, 37C, pH 7.4.
For the molecule B1, binding was put at a Kd of 11 nM and the kon came to 130000 M⁻¹ s⁻¹.
Regarding B2, the affinity, expressed as Kd, was 2 nM and the on-rate (kon) was 190000 M⁻¹ s⁻¹.
As for B3, binding was characterised by a dissociation constant (Kd) of 38 nM and the on-rate (kon) stood at 42000 M⁻¹ s⁻¹.
